Measured values taken from US5770690, “Bax omega protein and methods” (Neurex Corporation, dated 1998).

Biological target: T1, Bax-ω GAL4-transactivation domain hybrid (plasmid Bax-ω-GAL424) (yeast; human)
T1 chain: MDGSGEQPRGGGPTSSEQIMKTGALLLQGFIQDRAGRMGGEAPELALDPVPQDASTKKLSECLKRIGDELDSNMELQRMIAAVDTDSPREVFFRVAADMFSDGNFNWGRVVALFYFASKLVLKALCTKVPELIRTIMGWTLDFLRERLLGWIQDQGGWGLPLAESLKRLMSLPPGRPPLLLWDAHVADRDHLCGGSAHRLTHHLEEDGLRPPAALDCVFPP
Test: yeast two-hybrid: β-galactosidase filter assay (SFY526) and growth in the absence of histidine (HF7C); (-) means white signal / no growth

binding result: no binding
B1: Bax-ω GAL4-DNA binding domain hybrid (plasmid Bax-ω-pAS1) (other)
chain: T1 chain
